What is called stoichiometry N is the number of molecules, sites or subunits per partner or assembly.

In this test the target is pyruvate kinase M2 (PKM2), endogenous in mouse macrophages (mouse (endogenous in BMDMs or Raw 264.7)) (UniProt P52480). Nature of the test: cross-linking.

pyruvate kinase M2 (PKM2), endogenous in mouse macrophages, P52480 1-531 (enzyme; other documents disagree on this pair), sequence (P52480 whole entry): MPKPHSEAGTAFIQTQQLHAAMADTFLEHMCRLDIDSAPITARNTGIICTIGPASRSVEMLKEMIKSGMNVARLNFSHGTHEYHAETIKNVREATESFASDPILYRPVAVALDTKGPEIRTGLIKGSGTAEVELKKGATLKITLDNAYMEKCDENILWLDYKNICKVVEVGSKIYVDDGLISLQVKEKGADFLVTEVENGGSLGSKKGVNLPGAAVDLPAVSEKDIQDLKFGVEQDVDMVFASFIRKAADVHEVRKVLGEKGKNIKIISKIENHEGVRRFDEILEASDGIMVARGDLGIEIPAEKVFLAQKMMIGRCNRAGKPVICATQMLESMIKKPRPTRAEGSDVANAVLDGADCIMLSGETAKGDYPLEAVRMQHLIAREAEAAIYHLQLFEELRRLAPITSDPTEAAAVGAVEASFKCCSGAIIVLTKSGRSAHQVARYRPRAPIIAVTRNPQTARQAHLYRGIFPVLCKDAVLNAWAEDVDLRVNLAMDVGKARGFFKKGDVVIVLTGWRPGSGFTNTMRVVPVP

As for “pyruvate kinase M2 (PKM2), endogenous in mouse macrophages, P52480 1-531 (enzyme; other documents disagree on this pair)”, the stoichiometry N worked out at 4.

(Values after publication PMC7369618.)
